Experimental data as given in the Human Domainome abundance scans (Beltran et al. 2025).
± gives the uncertainty stated by the source.

B1: Transcriptional regulator ERG, residues 117 to 197; numbered along this chain, P11308 (parent)
chain: NMTTNERRVIVPADPTLWSTDHVRQWLEWAVKEYGLPDVNILLFQNIDGKELCKMTKDDFQRLTPSYNADILLSHLHYLRE

Variants of: B1
Experiment: abundance fitness (aPCA) (normalised: wild type 0, dead -1); higher = more abundant; growth selection in yeast, the domain comes from the species named
Settings: Homo sapiens

| Variant | abundance fitness |
| --- | --- |
| NMTTNERRVEVPADPTLWSTDHVRQWLEWAVKEYGLPDVNILLFQNIDGKELCKMTKDDFQRLTPSYNADILLSHLHYLRE [I10E] | 0.21 ± 0.043 |
| NMTKNERRVIVPADPTLWSTDHVRQWLEWAVKEYGLPDVNILLFQNIDGKELCKMTKDDFQRLTPSYNADILLSHLHYLRE [T4K] | -0.043 ± 0.058 |
| NMTTNERRVIVPADPTLWSTDHVRQWLEWYVKEYGLPDVNILLFQNIDGKELCKMTKDDFQRLTPSYNADILLSHLHYLRE [A30Y] | -0.655 ± 0.2 |
| NMTTNERRVIVTADPTLWSTDHVRQWLEWAVKEYGLPDVNILLFQNIDGKELCKMTKDDFQRLTPSYNADILLSHLHYLRE [P12T] | -0.343 ± 0.077 |
| NMTTNERFVIVPADPTLWSTDHVRQWLEWAVKEYGLPDVNILLFQNIDGKELCKMTKDDFQRLTPSYNADILLSHLHYLRE [R8F] | -0.076 ± 0.068 |
| NMTTNERRVIVPADPTLWSTDHVRQWLEWAVKEYGLPDVNILLFQNIDGKELCKMTKDDFQRHTPSYNADILLSHLHYLRE [L63H] | -0.18 ± 0.1 |
| NMTTNERRVIVPADPTLWSTDHVRAWLEWAVKEYGLPDVNILLFQNIDGKELCKMTKDDFQRLTPSYNADILLSHLHYLRE [Q25A] | 0.03 ± 0.037 |
| NMTTNERRVIVPADPTLWSTDHVRQWLEWAVKEYGLPEVNILLFQNIDGKELCKMTKDDFQRLTPSYNADILLSHLHYLRE [D38E] | -0.094 ± 0.045 |
| NMTTNERRVIVPADPTLWSTDHVRQWLEWAVKEYGLPDVNILLFQNIDGKELFKMTKDDFQRLTPSYNADILLSHLHYLRE [C53F] | -0.235 ± 0.054 |
| NMTTNERRVIVPADPTLWSTDHVRQWLEWAVKEYGLPDVNILLFQNIDGKELPKMTKDDFQRLTPSYNADILLSHLHYLRE [C53P] | -1.06 ± 0.19 |
| NMTTNERRVIVPADPTQWSTDHVRQWLEWAVKEYGLPDVNILLFQNIDGKELCKMTKDDFQRLTPSYNADILLSHLHYLRE [L17Q] | 0.033 ± 0.064 |
| NMTTNERRVIVPADPTLWSTDHVRQWLEWAVVEYGLPDVNILLFQNIDGKELCKMTKDDFQRLTPSYNADILLSHLHYLRE [K32V] | -0.036 ± 0.04 |
| NMTTNERRVIVPADPTLWSTDHVRQWLEWAVKEYGLPDVNILLFQNIDGKELCKMTKDDFQRLTPSYNADILLSHLHYLNE [R80N] | 0.193 ± 0.17 |
| NMTTNERRVIVPADPTLWSTDHVRQWLEWAVKEYGLPDVNILLFQNIDGKELCKMTKDDFMRLTPSYNADILLSHLHYLRE [Q61M] | 0.096 ± 0.076 |
| NMTTNERRVIVPADPTLWSTDHVRQWLEWAVKEYGLPDVNILLFQNIDGKETCKMTKDDFQRLTPSYNADILLSHLHYLRE [L52T] | -1.11 ± 0.17 |
| NMTTNERRVIVPADPTLWSTRHVRQWLEWAVKEYGLPDVNILLFQNIDGKELCKMTKDDFQRLTPSYNADILLSHLHYLRE [D21R] | -0.051 ± 0.034 |
| NMTTNERRVIVPADPTLWSTDHVRQWLEWAVKEYGLPDVNILLFQNIDGKELCKMTKDDFQRLTRSYNADILLSHLHYLRE [P65R] | -0.017 ± 0.046 |

| Variant | abundance fitness |
| --- | --- |
| NMTTNERCVIVPADPTLWSTDHVRQWLEWAVKEYGLPDVNILLFQNIDGKELCKMTKDDFQRLTPSYNADILLSHLHYLRE [R8C] | -0.112 ± 0.08 |
| NMTTNEREVIVPADPTLWSTDHVRQWLEWAVKEYGLPDVNILLFQNIDGKELCKMTKDDFQRLTPSYNADILLSHLHYLRE [R8E] | 0.09 ± 0.068 |
| NMTTNERRVIVPADPTLWSTDHVRQWLEWAVKEYGLPDVNILLFQNIDGKELCKMTKDDFQRLTPSYNADILLYHLHYLRE [S74Y] | -0.018 ± 0.12 |
| NMTTNERRVIVPADPTLWSTDHVRQWLEWAVKEYGLPDVNILLFQNIDGKELCKMTKDDFQRLTESYNADILLSHLHYLRE [P65E] | -0.088 ± 0.057 |
| NMTTNERRVIVPADPTLWSTDHVRQWLEWAVKEYGLPPVNILLFQNIDGKELCKMTKDDFQRLTPSYNADILLSHLHYLRE [D38P] | 0.046 ± 0.054 |
| NMTTNERRVIVPADPTLWSTDHVMQWLEWAVKEYGLPDVNILLFQNIDGKELCKMTKDDFQRLTPSYNADILLSHLHYLRE [R24M] | -0.023 ± 0.055 |
| NMTTNERRVIVPADPTLWSTDHVRQWLEWANKEYGLPDVNILLFQNIDGKELCKMTKDDFQRLTPSYNADILLSHLHYLRE [V31N] | -0.218 ± 0.11 |
| NMTTNERRVIVPADPTLWSTDHVRQWLEWAVKEYGLPDVNILIFQNIDGKELCKMTKDDFQRLTPSYNADILLSHLHYLRE [L43I] | -0.217 ± 0.15 |
| NMTTNERRVIVPADPTLWSTDAVRQWLEWAVKEYGLPDVNILLFQNIDGKELCKMTKDDFQRLTPSYNADILLSHLHYLRE [H22A] | -0.286 ± 0.048 |
| NMTTNERRVIMPADPTLWSTDHVRQWLEWAVKEYGLPDVNILLFQNIDGKELCKMTKDDFQRLTPSYNADILLSHLHYLRE [V11M] | 0.087 ± 0.053 |
| NMTTNERRVIVPADPTLWSTDHVRQWLEWAVKEYGLPDVNILLFQNISGKELCKMTKDDFQRLTPSYNADILLSHLHYLRE [D48S] | -0.052 ± 0.044 |
| NMTTNERRVIVPADPTLWSTDHVRQWLEWAVKEYGLPDVNILLFKNIDGKELCKMTKDDFQRLTPSYNADILLSHLHYLRE [Q45K] | 0.042 ± 0.053 |
| NMTTNERRVIVPADPTLWSTDHVRQWLEWAVKTYGLPDVNILLFQNIDGKELCKMTKDDFQRLTPSYNADILLSHLHYLRE [E33T] | -0.15 ± 0.069 |
| NMTTNERRVIVPPDPTLWSTDHVRQWLEWAVKEYGLPDVNILLFQNIDGKELCKMTKDDFQRLTPSYNADILLSHLHYLRE [A13P] | 0.116 ± 0.062 |
| HMTTNERRVIVPADPTLWSTDHVRQWLEWAVKEYGLPDVNILLFQNIDGKELCKMTKDDFQRLTPSYNADILLSHLHYLRE [N1H] | -0.279 ± 0.085 |
| NMTTNERRVIVPADPTLWSTDHVRQWLEWAVKEYGLPDVNILLFQNIDGKELCKMTKDDFQRLTPSYNADDLLSHLHYLRE [I71D] | -0.359 ± 0.089 |
| IMTTNERRVIVPADPTLWSTDHVRQWLEWAVKEYGLPDVNILLFQNIDGKELCKMTKDDFQRLTPSYNADILLSHLHYLRE [N1I] | 0.007 ± 0.081 |
